# Literature values, collected in patent US6468959B1, “Peroral dosage form for peptide containing medicaments, in particular insulin” (ALFATEC-Pharm GmbH, priority 1991, dated 2002).
# Conditions: weakly acid environments of pH 3 to 4 and at pH 7 to 8
substance,measurement,value
insulin,solubility,soluble
same,stability,adequately stable
